Source: article PMC9530591

Target: HA1-trimer (influenza A virus H1N1 A/California/07/2009)
Assay: AUC

**Q.** With HA1-trimer as the substance, how does the stoichiometry N read?
**A.** 3
